From PMC6377682 (2019)

B1: PP1α^301-330 C-tail peptide [human] / human ASPP2^920-1120 [human] (parent complex)
chain 1: KNKGKYGQFSGLNPGGRPITPPRNSAKAKK
chain 2: MRVKFNPLALLLDSSLEGEFDLVQRIIYEVDDPSLPNDEGITALHNAVCAGHTEIVKFLVQFGVNVNAADSDGWTPLHCAASCNNVQVCKFLVESGAAVFAMTYSDMQTAADKCEEMEEGYTQCSQFLYGVQEKMGIMNKGVIYALWDYEPQNDDELPMKEGDCMTIIHREDEDEIEWWWARLNDKEGYVPRNLLGLYPRI
B2: human ASPP2^920-1120 [human] / human PP1β^6-327 [human] (parent complex)
chain 1: B1 chain 2
chain 2: LNVDSLITRLLEVRGCRPGKIVQMTEAEVRGLCIKSREIFLSQPILLELEAPLKICGDIHGQYTDLLRLFEYGGFPPEANYLFLGDYVDRGKQSLETICLLLAYKIKYPENFFLLRGNHECASINRIYGFYDECKRRFNIKLWKTFTDCFNCLPIAAIVDEKIFCCHGGLSPDLQSMEQIRRIMRPTDVPDTGLLCDLLWSDPDKDVQGWGENDRGVSFTFGADVVSKFLNRHDLDLICRAHQVVEDGYEFFAKRQLVTLFSAPNYCGEFDNAGGMMSVDETLMCSFQILKPSEKKAKYQYGGLNSGRPVTPPRTANPPKKR
B3: human ASPP1^882-1090 [human] / human PP1β^6-327 [human] (parent complex)
chain 1: LRVRFNPLALLLDASLEGEFDLVQRIIYEVEDPSKPNDEGITPLHNAVCAGHHHIVKFLLDFGVNVNAADSDGWTPLHCAASCNSVHLCKQLVESGAAIFASTISDIETAADKCEEMEEGYIQCSQFLYGVQEKLGVMNKGVAYALWDYEAQNSDELSFHEGDALTILRRKDESETEWWWARLGDREGYVPKNLLGLYPRIKPRQRTLA
chain 2: B2 chain 2
B4: human ASPP2^920-1120 [human] / PP1α^301-330 C-tail peptide [human] (parent complex)
chain 1: B1 chain 2
chain 2: B1 chain 1

Variants of: B1
Assay: ITC

Row | Variant | Kd [nM]
1 | chain 1 KNKGKYGQFSGLNPGGRPITPPRNSAAAKK | 520
2 | chain 1 KNKGKYGQFSGLNPGGRPITPPRNSAKAKA | 326
3 | chain 1 KNKGKYGQFSGLNPGGRPITPPRNSAKAAK | 342

Variants of: B2
Assay: BLI

Row | Variant | Kd [nM]
4 | chain 1 MRVKFNPLALLLDSSLEGEFDLVQRIIYEVDDPSLPNDEGITALHNAVCAGHTEIVKFLVQFGVNVNAADSDGWTPLHCAASCNNVQVCKFLVESGAAVFAMTYSDMQTAADKCEEMEEGYTQCSQFLYGVQEKMGIMNKGVIYALWDYEPQNDDELPMKEGDCMTIIHRKDESEIEWWWARLNDKEGYVPRNLLGLYPRI [chain 1 E171K, chain 1 D174S] | 178
5 | chain 1 MRVKFNPLALLLDSSLEGEFDLVQRIIYEVDDPSLPNDEGITALHNAVCAGHTEIVKFLVQFGVNVNAADSDGWTPLHCAASCNNVQVCKFLVESGAAVFAMTYSDMQTAADKCEEMEEGYTQCSQFLYGVQEKMGIMNKGVIYALWDYEPQNDDELPMKEGDCMTIIHREDESEIEWWWARLNDKEGYVPRNLLGLYPRI [chain 1 D174S] | 136

Variants of: B3
Assay: BLI

Row | Variant | Kd [nM]
6 | chain 1 LRVRFNPLALLLDASLEGEFDLVQRIIYEVEDPSKPNDEGITPLHNAVCAGHHHIVKFLLDFGVNVNAADSDGWTPLHCAASCNSVHLCKQLVESGAAIFASTISDIETAADKCEEMEEGYIQCSQFLYGVQEKLGVMNKGVAYALWDYEAQNSDELSFHEGDALTILRREDEDETEWWWARLGDREGYVPKNLLGLYPRIKPRQRTLA [chain 1 K171E, chain 1 S174D] | 84.4

Variants of: B4
Assay: ITC

Row | Variant | Kd [nM]
7 | chain 1 MRVKFNPLALLLDSSLEGEFDLVQRIIYEVDDPSLPNDEGITALHNAVCAGHTEIVKFLVQFGVNVNAADSDGWTPLHCAASCNNVQVCKFLVESGAAVFAMTYSDMQTAADKCEEMEEGYTQCSQFLYGVQEKMGIMNKGVIYALWDYEPQNDDELPMKEGDCMTIIHREGPDEIEWWWARLNDKEGYVPRNLLGLYPRI [chain 1 D172G, chain 1 E173P] | 172
